# Data reported in patent US10532106B2 (priority 2014, dated 2020).
# “Also recorded” adds a separate entry of the source. Numbered stars: 1 amine (or outer) side, 2 acyl side, 3 side chain; on linkers, the order of the positions; unused ones are H or OH. Bridge positions count the residues as written; N and C are the ends. Square brackets hold non-standard residues; d marks the D form. Peptide text beside a SMILES is read from it. * marks the point of attachment. X1 = COc1cc2cc(c1Cl)N(C)C(=O)C[C@H](OC(=O)[C@H](C)N(C)C(=O)CCC(C)(C)SSCCCC(=O)*)[C@]1(C)O[C@H]1[C@H](C)[C@@H]1C[C@@](O)(NC(=O)O1)[C@H](OC)/C=C/C=C(\C)C2; X2 = COc1cc2cc(c1Cl)N(C)C(=O)C[C@H](OC(=O)[C@H](C)N(C)C(=O)CCC(C)SSC(C)CCC(=O)*)[C@]1(C)O[C@H]1[C@H](C)[C@@H]1C[C@@](O)(NC(=O)O1)[C@H](OC)/C=C/C=C(\C)C2; X3 = COc1cc2cc(c1Cl)N(C)C(=O)C[C@H](OC(=O)[C@H](C)N(C)C(=O)CCSSCCCC(=O)*)[C@]1(C)O[C@H]1[C@H](C)[C@@H]1C[C@@](O)(NC(=O)O1)[C@H](OC)/C=C/C=C(\C)C2; 5FAM = O=C1OC2(c3ccc(O)cc3Oc3cc(O)ccc32)c2ccc(C(=O)*)cc21; 1Nal = N[C@@H](Cc1cccc2ccccc12)C(=O)O; TBMB = c1c(C[*:1])cc(C[*:3])cc1C[*:2]; Tle = CC(C)(C)[C@H](N)C(=O)O; βAla = NCCC(=O)O; Sar = CNCC(=O)O
# Tests used:
# [1] = molecular target: T1, MT1-MMP hemopexin domain (Homo sapiens, UniProt P50281); assay: Competition assay using fluorescence polarisation; assay type: binding
# T1 construct: residues Cys319-Gly511 from the human gene; His6 (N); made in house; host or cells: HEK293 (transient), pEXPR-IBA42 vector
# Method in brief: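 Pre-formed PEX–fluorescent tracer complex titrated with non-fluoresceinated bicyclic peptide, which displaces tracer and lowers fluorescence polarisation. Competitor Kd obtained by fitting to the cubic-equation solution for tracer/titrant/protein equilibria, using tracer Kd from separate direct-binding FP.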
# [2] = Plasma stability, quantitative LC-MS (Method #2); assay type: in vitro ADME, human; conditions: for t1/2 (hrs) (human plasma): Table 16, incubation up to 24 hrs, 4 μM; for degradation half-life in human plasma: refers to Table 16
# Protocol: (§1) […] […] Prior to LC-MS analysis, samples were defrosted, and mixed with 3 volumes (here, 120 μL) of 1:1 acetonitrile/MeOH water. The milky suspensions were centrifuged for 30 min at 13000 rpm, and peptide-containing supernatants were quantitated for doubly/triply charged species and MS/MS fragments thereof using a Waters Xevo TQ-D instrument, while using a plasma extracted standard curve of the same peptides as a reference. The half-life of degradation in plasma was used to assess the comparative stability of the molecules.
# [3] = Plasma stability, quantitative LC-MS (Method #2); assay type: in vitro ADME, mouse; conditions: Table 16; incubation up to 24 hrs, 4 μM
# Protocol: as §1
# [4] = Plasma stability, quantitative LC-MS; assay type: in vitro ADME, rat; conditions: Table 16; incubation up to 24 hrs, 4 μM
# [5] = Relative stability to DTT of Bicycle Drug Conjugates, quantitative LC-MS; assay type: physicochemical; conditions: Bicycle Drug Conjugates containing the disulphide linker
# Protocol: The four BDCs were assessed for several in vitro parameters such as retention of potency to the human MT1-MMP hemopexin domain, stability in ex vivo mouse, rat and human plasma, and stability to reducing agents such as dithiothreitol.
# [6] = test system: human lung squamous cell carcinoma line EBC-1; assay: Efficacy in EBC-1 xenograft mice; assay type: in vivo, mouse
# Protocol: All BDCs containing the stabilised bicycle core sequence were tested for their efficacies in in vivo mouse xenograft models, using the human lung squamous cell carcinoma line EBC-1.
# The area under the curve (AUC) of tumour volume over time and BDC was taken and plotted against the corresponding dose group (FIG. 13).
# [7] = cited from earlier work; for reduction in sensitivity to a reducing agent such as dithiothreitol (compared to the non-hindered disulphide): in the antibody drug conjugate context; for Relative Stability to DTT (ADC): values relate to antibody drug conjugates containing the disulphide linker
# [8] = molecular target: T1, MT1-MMP hemopexin domain; assay: Direct binding fluorescence polarisation (FP) assay; conditions: Table 2; FP method Direct Binding; read-out: Kd
# Protocol: Direct Binding Fluorescence Polarisation or Anisotropy Assays are performed by titrating a constant concentration of fluorescent tracer (here, the fluoresceinated bicyclic peptide to be studied) with its binding partner (here, the MT1-MMP hemopexin domain). As the concentration of binding partner increases during the titration, the polarisation signal changes in proportion to the fraction of bound and unbound material. This allows determination of […] (Kd) quantitatively. Assay data can be fit using standard ligand binding equations.
# The titrant (binding partner) concentration is varied from 0.1 nM up to typically 5 μM. The range is chosen such that the maximum change in fluorescent polarisation can be observed. Buffers employed are phosphate buffered saline in the presence of 0.01% Tween. Experiments were run in black 384 well low-bind/low volume plates (Corning 3820), and the fluorescent polarisation signal was measured using a BMG Pherastar FS plate reader.
# Fluorescent tracers referred to in the text are bicyclic peptides that have been fluoresceinated using 5,6-carboxyfluorescein. Fluoresceination may be performed on the N-terminal amino group of the peptide, which is separated from the bicycle core sequence by a sarcosine spacer (usually Sar5). This can be done during Fmoc solid phase synthesis or post-synthetically (after cyclisation with TBMB and purification) if the N-terminal amino group is unique to the peptide. Fluoresceination can also be performed on the C-terminus, usually on a Lysine introduced as the first C-terminal residue, which is then separated from the bicycle core sequence by a sarcosine spacer (usually Sar6). Thus, N-terminal tracers can have a molecular format described as Fluo-Gly-Sar5-A(BicycleCoreSequence), and (BicycleCoreSequence)-A-Sar6-K(Fluo) for a C-terminally fluoresceinated construct. Fluorescent tracers used in the Examples are A-(17-69)-A-Sar6-K(Fluo), A-(17-69-07)-A-Sar6-K(Fluo), and A-(17-69-12)-A-Sar6-K(Fluo). Due to the acidic nature of the 17-69 fluorescent peptides, they were typically prepared as concentrated DMSO stocks, from which dilution were prepared in 100 mM Tris pH 8 buffer.
# [9] = test system: HT-1080 xenograft tumours; assay: Efficacy in HT-1080 xenograft mice; assay type: in vivo, mouse; conditions: HT1080 xenograft
# Protocol: Balb/c nude mice bearing subcutaneous HT-1080 xenograft tumours were treated with BDCs or vehicle (PBS). BDCs were dosed 3 times weekly for 2 weeks, dosing initiated when tumours measured approx. 150-200 mm^3. Mice were monitored, and measurements of tumour volume and body weight recorded 3 times a week.
# [10] = Table 16, footnote e: 17-69-07-N004 as tracer in FP competition, read-out: Kd (nM) (Hemopexin domain)
Structure (SMILES),"Kd ([1]; Table 12, molecules selected for plasma stability assessment, read-out: Kd) [nM]","Kd [1, 10] [nM]","species cross-reactivity ([1]; murine, dog, cynomolgus and human MT1-MMP)",t1/2 (hrs) (human plasma) [2] [h],t1/2 (hrs) (mouse plasma) [3] [h],t1/2 (hrs) (rat plasma) [4] [h],degradation half-life in human plasma [2] [h],Relative Stability to DTT (BDC) [5],"efficacy, tumour clearance [6]","tolerability, body weight [6]",reduction in sensitivity to a reducing agent such as dithiothreitol (compared to the non-hindered disulphide) [7] [fold],Relative Stability to DTT (ADC) [7],Kd [8] [nM],weight of the animals [9],"tumour volume ([9]; compared to vehicle control, listed as BDC17BDC-9)","Kd ([1]; Table 16, footnote f: 17-69-07-N040 as tracer in FP competition, read-out: Kd (nM) (Hemopexin domain))"
"C[C@H](NC(=O)CN(C)C(=O)CN(C)C(=O)CN(C)C(=O)CN(C)C(=O)CN(C)C(=O)CN(C)C(=O)CN(C)C(=O)CN(C)C(=O)CN(C)C(=O)CN(C)C(=O)CCN)C(=O)N[C@H]1CSCc2cc3cc(c2)CSC[C@H](NC(=O)[C@@H](C)NC(=O)[C@H](Cc2cccc4ccccc24)NC(=O)[C@H](CCC(=O)O)NC(=O)[C@H](CC(N)=O)NC(=O)[C@@H](C)NC1=O)C(=O)N[C@@H](CCC(=O)O)C(=O)N[C@@H](CC(=O)O)C(=O)N[C@@H](Cc1ccccc1)C(=O)N[C@@H](Cc1ccc(O)cc1)C(=O)N[C@@H](CC(=O)O)C(=O)N[C@@H](C(C)(C)C)C(=O)N[C@H](C(N)=O)CSC3 [17-69-07-N241, bAla-Sar10-A-(17-69-07) D-Ala1 1Nal4 D-Ala5 tBuGly11] (H-[βAla][Sar][Sar][Sar][Sar][Sar][Sar][Sar][Sar][Sar][Sar]AC[dA]NE[1Nal][dA]CEDFYD[Tle]C-NH2; linker 13-19-26 via TBMB)",1.21 ± 0.24,1.4 ± 0.3,fully cross reactive,>36,>36,>36,,,,,,,,,,
COc1cc2cc(c1Cl)N(C)C(=O)C[C@H](OC(=O)[C@H](C)N(C)C(=O)CCC(C)(C)SSCCCC(=O)NCCC(=O)N(C)CC(=O)N(C)CC(=O)N(C)CC(=O)N(C)CC(=O)N(C)CC(=O)N(C)CC(=O)N(C)CC(=O)N(C)CC(=O)N(C)CC(=O)N(C)CC(=O)N[C@@H](C)C(=O)N[C@H]1CSCc3cc4cc(c3)CSC[C@H](NC(=O)[C@@H](C)NC(=O)[C@H](Cc3cccc5ccccc35)NC(=O)[C@H](CCC(=O)O)NC(=O)[C@H](CC(N)=O)NC(=O)[C@@H](C)NC1=O)C(=O)N[C@@H](CCC(=O)O)C(=O)N[C@@H](CC(=O)O)C(=O)N[C@@H](Cc1ccccc1)C(=O)N[C@@H](Cc1ccc(O)cc1)C(=O)N[C@@H](CC(=O)O)C(=O)N[C@@H](C(C)(C)C)C(=O)N[C@H](C(N)=O)CSC4)[C@]1(C)O[C@H]1[C@H](C)[C@@H]1C[C@@](O)(NC(=O)O1)[C@H](OC)/C=C/C=C(\C)C2 [BT17BDC-19] ({X1-βAla}-[Sar][Sar][Sar][Sar][Sar][Sar][Sar][Sar][Sar][Sar]AC[dA]NE[1Nal][dA]CEDFYD[Tle]C-NH2; linker 12-18-25 via TBMB),,0.5,,,>36,>36,> 14,30,efficacious and cleared tumours in 9 days,well tolerated at efficacious doses,14,14,,,,
"CC[C@H](C)[C@@H]1NC(=O)[C@H](CC(=O)O)NC(=O)[C@H](Cc2ccc(O)cc2)NC(=O)[C@H](Cc2ccccc2)NC(=O)[C@H](CC(=O)O)NC(=O)[C@H](CCC(=O)O)NC(=O)[C@@H]2CSCc3cc(cc(c3)CSC[C@@H](C(=O)N[C@@H](C)C(=O)N(C)CC(=O)N(C)CC(=O)N(C)CC(=O)N(C)CC(=O)N(C)CC(=O)N(C)CC(=O)N[C@@H](CCCCNC(=O)c3ccc4c(c3)C(=O)OC43c4ccc(O)cc4Oc4cc(O)ccc43)C(N)=O)NC1=O)CSC[C@H](NC(=O)[C@H](C)N)C(=O)N[C@@H](Cc1ccc(O)cc1)C(=O)N[C@@H](CC(N)=O)C(=O)N[C@@H](CCC(=O)O)C(=O)N[C@@H](Cc1ccccc1)C(=O)NCC(=O)N2 [17-69-07-N040, A-(17-69-07)-A-Sar6-K(Fl)] (H-ACYNEFGCEDFYDICA[Sar][Sar][Sar][Sar][Sar][Sar]K(5FAM)-NH2; linker 2-8-15 via TBMB)",,,,,,,,,,,,,0.52,,,
CC[C@H](C)[C@@H]1NC(=O)[C@H](CC(=O)O)NC(=O)[C@H](Cc2ccc(O)cc2)NC(=O)[C@H](Cc2ccccc2)NC(=O)[C@H](CC(=O)O)NC(=O)[C@H](CCC(=O)O)NC(=O)[C@@H]2CSCc3cc(cc(c3)CSC[C@H](NC(=O)[C@H](C)NC(=O)CN(C)C(=O)CN(C)C(=O)CN(C)C(=O)CN(C)C(=O)CN(C)C(=O)CN(C)C(=O)CN(C)C(=O)CN(C)C(=O)CN(C)C(=O)CN(C)C(=O)CNC(=O)CCCSSCCC(=O)N(C)[C@@H](C)C(=O)O[C@H]3CC(=O)N(C)c4cc(cc(OC)c4Cl)C/C(C)=C/C=C/[C@@H](OC)[C@@]4(O)C[C@H](OC(=O)N4)[C@@H](C)[C@@H]4O[C@@]34C)C(=O)N[C@@H](Cc3ccc(O)cc3)C(=O)N[C@@H](CC(N)=O)C(=O)N[C@@H](CCC(=O)O)C(=O)N[C@@H](Cc3ccccc3)C(=O)NCC(=O)N2)CSC[C@@H](C(N)=O)NC1=O [BT17BDC-9] (X3-G[Sar][Sar][Sar][Sar][Sar][Sar][Sar][Sar][Sar][Sar]ACYNEFGCEDFYDIC-NH2; linker 13-19-26 via TBMB),,,,,,,,,,,,,,largely stable,significant reduction in tumour volume after 9 days post injection; also recorded: Tumours were completely cleared by day 14,
COc1cc2cc(c1Cl)N(C)C(=O)C[C@H](OC(=O)[C@H](C)N(C)C(=O)CCC(C)SSC(C)CCC(=O)NCCC(=O)N(C)CC(=O)N(C)CC(=O)N(C)CC(=O)N(C)CC(=O)N(C)CC(=O)N(C)CC(=O)N(C)CC(=O)N(C)CC(=O)N(C)CC(=O)N(C)CC(=O)N[C@@H](C)C(=O)N[C@H]1CSCc3cc4cc(c3)CSC[C@H](NC(=O)[C@@H](C)NC(=O)[C@H](Cc3cccc5ccccc35)NC(=O)[C@H](CCC(=O)O)NC(=O)[C@H](CC(N)=O)NC(=O)[C@@H](C)NC1=O)C(=O)N[C@@H](CCC(=O)O)C(=O)N[C@@H](CC(=O)O)C(=O)N[C@@H](Cc1ccccc1)C(=O)N[C@@H](Cc1ccc(O)cc1)C(=O)N[C@@H](CC(=O)O)C(=O)N[C@@H](C(C)(C)C)C(=O)N[C@H](C(N)=O)CSC4)[C@]1(C)O[C@H]1[C@H](C)[C@@H]1C[C@@](O)(NC(=O)O1)[C@H](OC)/C=C/C=C(\C)C2 (stereo partly shown) [BT17BDC-20] ({X2-βAla}-[Sar][Sar][Sar][Sar][Sar][Sar][Sar][Sar][Sar][Sar]AC[dA]NE[1Nal][dA]CEDFYD[Tle]C-NH2; linker 12-18-25 via TBMB),,,,32 ± 1,>36,34 ± 4,> 14,93,not efficacious and only caused a marginal reduction in tumour sizes,tolerated based on constant weight,170,170,,,,2.95 ± 1.3
